Residue numbers refer to the chain shown, from its start.

T1: FcγRIIa(H) (human, UniProt P12318 34-217)
T1 construct: extracellular domain; also called 2aH
T1 sequence: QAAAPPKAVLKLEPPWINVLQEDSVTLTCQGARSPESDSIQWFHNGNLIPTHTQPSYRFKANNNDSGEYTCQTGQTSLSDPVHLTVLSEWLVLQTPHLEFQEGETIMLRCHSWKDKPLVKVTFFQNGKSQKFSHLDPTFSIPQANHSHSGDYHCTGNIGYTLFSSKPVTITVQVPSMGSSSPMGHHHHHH

T2: FcγRIIb (human, UniProt P31994 43-217)
T2 construct: extracellular domain; also called 2b
T2 sequence: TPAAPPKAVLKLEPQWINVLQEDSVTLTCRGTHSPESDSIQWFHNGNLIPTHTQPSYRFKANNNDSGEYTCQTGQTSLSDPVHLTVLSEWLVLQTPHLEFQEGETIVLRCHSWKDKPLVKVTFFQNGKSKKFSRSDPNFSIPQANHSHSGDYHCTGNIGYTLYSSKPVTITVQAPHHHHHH

T3: FcγRIIa(R) (human, UniProt P12318 34-217)
T3 construct: extracellular domain; also called 2aR
T3 sequence: T1 sequence with H134R

B1: GpH7-A5/GpH7-B3 variant A330_10E/GpL16-k0 (antibody, human IgG1, kappa)
heavy 1: not shown
heavy 2: not shown
light: DIVMTQSPLSLPVTPGEPASISCQASESLVHSNRNTYLHWYLQKPGQSPQLLIYKVSNRFSGVPDRFSGSGSGTDFTLKISRVEAEDVGVYYCSQNTHVPPTFGQGTKVEIERTVAAPSVFIFPPSDEQLKSGTASVVCLLNNFYPREAKVQWKVDNALQSGNSQESVTEQDSKDSTYSLSSTLTLSKADYEKHKVYACEVTHQGLSSPVTKSFNRGEC
notes: He Ab: heterodimerized IgG1, one H chain mutated
B2: GpH7-A5/GpH7-B3 variant A330_19Q/GpL16-k0 (antibody, human IgG1, kappa)
heavy 1: not shown
heavy 2: not shown
light: B1 light
notes: as for B1
B3: GpH7-A5/GpH7-B3 variant L328_07I/GpL16-k0 (antibody, human IgG1, kappa)
heavy 1: not shown
heavy 2: not shown
light: B1 light
notes: as for B1
B4: GpH7-A5/GpH7-B3 variant K326_02A/GpL16-k0 (antibody, human IgG1, kappa)
heavy 1: not shown
heavy 2: not shown
light: B1 light
notes: as for B1
B5: GpH7-A5/GpH7-B3 variant A330_16H/GpL16-k0 (antibody, human IgG1, kappa)
heavy 1: not shown
heavy 2: not shown
light: B1 light
notes: as for B1
B6: GpH7-A5/GpH7-B3 variant K326_05P/GpL16-k0 (antibody, human IgG1, kappa)
heavy 1: not shown
heavy 2: not shown
light: B1 light
notes: as for B1
B7: GpH7-A5/GpH7-B3 variant A330_20W/GpL16-k0 (antibody, human IgG1, kappa)
heavy 1: not shown
heavy 2: not shown
light: B1 light
notes: as for B1
B8: GpH7-A5/GpH7-B3 variant K326_07I/GpL16-k0 (antibody, human IgG1, kappa)
heavy 1: not shown
heavy 2: not shown
light: B1 light
notes: as for B1
B9: GpH7-A5/GpH7-B3 variant L328_03V/GpL16-k0 (antibody, human IgG1, kappa)
heavy 1: not shown
heavy 2: not shown
light: B1 light
notes: as for B1
B10: GpH7-A5/GpH7-B3 variant K326_14T/GpL16-k0 (antibody, human IgG1, kappa)
heavy 1: not shown
heavy 2: not shown
light: B1 light
notes: as for B1
B11: GpH7-A5/GpH7-B3 variant K326_04F/GpL16-k0 (antibody, human IgG1, kappa)
heavy 1: not shown
heavy 2: not shown
light: B1 light
notes: as for B1
B12: GpH7-A5/GpH7-B3 variant K326_13S/GpL16-k0 (antibody, human IgG1, kappa)
heavy 1: not shown
heavy 2: not shown
light: B1 light
notes: as for B1
B13: GpH7-A5/GpH7-B3 variant A330_14T/GpL16-k0 (antibody, human IgG1, kappa)
heavy 1: not shown
heavy 2: not shown
light: B1 light
notes: as for B1
B14: GpH7-A5/GpH7-B3 variant K326_12R/GpL16-k0 (antibody, human IgG1, kappa)
heavy 1: not shown
heavy 2: not shown
light: B1 light
notes: as for B1
B15: GpH7-A5/GpH7-B3 variant K326_01G/GpL16-k0 (antibody, human IgG1, kappa)
heavy 1: not shown
heavy 2: not shown
light: B1 light
notes: as for B1
B16: GpH7-A5/GpH7-B3 variant K326_20W/GpL16-k0 (antibody, human IgG1, kappa)
heavy 1: not shown
heavy 2: not shown
light: B1 light
notes: as for B1
B17: GpH7-A5/GpH7-B3 variant K326_09D/GpL16-k0 (antibody, human IgG1, kappa)
heavy 1: not shown
heavy 2: not shown
light: B1 light
notes: as for B1
B18: GpH7-A5/GpH7-B3 variant K326_15Y/GpL16-k0 (antibody, human IgG1, kappa)
heavy 1: not shown
heavy 2: not shown
light: B1 light
notes: as for B1
B19: GpH7-A5/GpH7-B3 variant A330_18N/GpL16-k0 (antibody, human IgG1, kappa)
heavy 1: not shown
heavy 2: not shown
light: B1 light
notes: as for B1
B20: GpH7-A5/GpH7-B3 variant K326_06M/GpL16-k0 (antibody, human IgG1, kappa)
heavy 1: not shown
heavy 2: not shown
light: B1 light
notes: as for B1
B21: GpH7-A5/GpH7-B3 variant K326_08L/GpL16-k0 (antibody, human IgG1, kappa)
heavy 1: not shown
heavy 2: not shown
light: B1 light
notes: as for B1
B22: GpH7-A5/GpH7-B3 variant K326_19Q/GpL16-k0 (antibody, human IgG1, kappa)
heavy 1: not shown
heavy 2: not shown
light: B1 light
notes: as for B1
B23: GpH7-A5/GpH7-B3 variant K326_16H/GpL16-k0 (antibody, human IgG1, kappa)
heavy 1: not shown
heavy 2: not shown
light: B1 light
notes: as for B1
B24: GpH7-A5/GpH7-B3 variant K326_18N/GpL16-k0 (antibody, human IgG1, kappa)
heavy 1: not shown
heavy 2: not shown
light: B1 light
notes: as for B1
B25: GpH7-A5/GpH7-B3 variant L328_06M/GpL16-k0 (antibody, human IgG1, kappa)
heavy 1: not shown
heavy 2: not shown
light: B1 light
notes: as for B1
B26: GpH7-A5/GpH7-B3 variant L328_04F/GpL16-k0 (antibody, human IgG1, kappa)
heavy 1: not shown
heavy 2: not shown
light: B1 light
notes: as for B1
B27: GpH7-A5/GpH7-B3 variant L328_02A/GpL16-k0 (antibody, human IgG1, kappa)
heavy 1: not shown
heavy 2: not shown
light: B1 light
notes: as for B1
B28: GpH7-A5/GpH7-B3 variant K326_03V/GpL16-k0 (antibody, human IgG1, kappa)
heavy 1: not shown
heavy 2: not shown
light: B1 light
notes: as for B1
B29: GpH7-A5/GpH7-B3 variant K326_10E/GpL16-k0 (antibody, human IgG1, kappa)
heavy 1: not shown
heavy 2: not shown
light: B1 light
notes: as for B1

One assay concerns the target T1, FcγRIIa(H). Put plainly: SPR, relative to GpH7-A5/GpH7-B3/GpL16-k0 =100. On the technique in general: SPR reads the build-up and loss of mass on a sensor chip optically.
For B1, the “He/Con 2aH” value stood at 87.7%.
Same read-out and setting: under B2 stands 110%.
On to B3, for which the “He/Con 2aH” value worked out at 111%.
The same measure, in the same setting: in the case of B4 it was 110%; in that of B5, 110%.
Same read-out and setting: under B6 stands 103%.
On the same count and under the same terms, under B7 stands 93.8%; under B8, 104%; under B9, 116%.
Consider B10, for which the “He/Con 2aH” value turned out to be 119%.
Still for that read-out and setting: in the case of B11 it was 101%.
Same read-out and setting: under B12 stands 110%; under B13, 102%.
Still for that read-out and setting: in the case of B14 it was 105%.
Turning to B15, the “He/Con 2aH” value came to 105%.
Same read-out and setting: in the case of B16 it was 86.7%.
On the same count and under the same terms, under B17 stands 115%; under B18, 102%.
On the same count and under the same terms, under B19 stands 88.3%; under B20, 108%.
As for B21, the “He/Con 2aH” value worked out at 96.5%.
Same read-out and setting: in the case of B22 it was 106%; in that of B23, 102%; in that of B24, 113%.
Same read-out and setting: under B25 stands 122%; under B26, 84.9%.
For the molecule B27, the “He/Con 2aH” value was determined as 154%.
On the same count and under the same terms, under B28 stands 101%; under B29, 106%.

The target of a further assay is T4, FcγRIa (human, UniProt P12314 16-292).
T4 construct: extracellular domain; also called 1a
T4 sequence (P12314 other isoform, or with tags, fused parts or gaps): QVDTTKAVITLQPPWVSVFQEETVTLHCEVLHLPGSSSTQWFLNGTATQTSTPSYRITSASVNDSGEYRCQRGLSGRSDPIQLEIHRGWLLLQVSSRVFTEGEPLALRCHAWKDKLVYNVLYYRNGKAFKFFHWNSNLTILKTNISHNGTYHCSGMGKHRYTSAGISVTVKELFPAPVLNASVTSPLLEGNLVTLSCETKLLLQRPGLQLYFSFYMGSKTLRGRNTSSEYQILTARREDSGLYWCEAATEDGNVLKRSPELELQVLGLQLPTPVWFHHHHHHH
Put plainly: SPR, relative to GpH7-A5/GpH7-B3/GpL16-k0 =100.
B1: the “He/Con 1a” value came out at 111%.
Still for that read-out and setting: under B2 stands 109%; under B3, 102%; under B4, 107%.
Still for that read-out and setting: under B5 stands 109%; under B6, 106%; under B7, 111%.
The same measure, in the same setting: in the case of B8 it was 106%; in that of B9, 103%; in that of B10, 109%.
Consider B11, for which the “He/Con 1a” value came to 107%.
Same read-out and setting: under B12 stands 106%; under B13, 108%; under B14, 105%.
The same measure, in the same setting: under B15 stands 106%; under B16, 108%; under B17, 109%.
Still for that read-out and setting: under B18 stands 111%; under B19, 110%; under B20, 108%.
On to B21, for which the “He/Con 1a” value turned out to be 105%.
On the same count and under the same terms, in the case of B22 it was 108%; in that of B23, 109%.
Same read-out and setting: under B24 stands 110%; under B25, 101%.
Same read-out and setting: under B26 stands 100%; under B27, 101%; under B28, 107%.
With B29, the “He/Con 1a” value worked out at 109%.

Another assay has as its target T2, FcγRIIb. Put plainly: SPR, relative to GpH7-A5/GpH7-B3/GpL16-k0 =100.
Turning to B1, the “He/Con 2b” value came to 79.2%.
Same read-out and setting: under B2 stands 103%.
Still for that read-out and setting: under B3 stands 200%.
Same read-out and setting: in the case of B4 it was 156%.
B5: the “He/Con 2b” value is 99%.
With B6, the “He/Con 2b” value is 141%.
As for B7, the “He/Con 2b” value was 86%.
Still for that read-out and setting: under B8 stands 223%; under B9, 157%.
Still for that read-out and setting: in the case of B10 it was 168%; in that of B11, 174%.
Consider B12, for which the “He/Con 2b” value is 139%.
On the same count and under the same terms, in the case of B13 it was 87.9%; in that of B14, 100%.
On the same count and under the same terms, under B15 stands 119%.
The same measure, in the same setting: in the case of B16 it was 166%; in that of B17, 216%; in that of B18, 179%.
As for B19, the “He/Con 2b” value was determined as 71.9%.
The same measure, in the same setting: under B20 stands 185%; under B21, 198%; under B22, 156%.
The same measure, in the same setting: in the case of B23 it was 133%; in that of B24, 118%.
The same measure, in the same setting: under B25 stands 176%.
As to B26, the “He/Con 2b” value is 273%.
On the same count and under the same terms, under B27 stands 180%; under B28, 196%.
On the same count and under the same terms, in the case of B29 it was 224%.

Another assay addresses T3, FcγRIIa(R). Put plainly: SPR, relative to GpH7-A5/GpH7-B3/GpL16-k0 =100.
In the case of B1, the “He/Con 2aR” value was 97.2%.
For B2, the “He/Con 2aR” value turned out to be 117%.
On the same count and under the same terms, in the case of B3 it was 160%; in that of B4, 125%.
Take B5: the “He/Con 2aR” value was 111%.
B6: the “He/Con 2aR” value worked out at 118%.
For B7, the “He/Con 2aR” value came out at 97.6%.
On the same count and under the same terms, in the case of B8 it was 141%; in that of B9, 150%.
Still for that read-out and setting: in the case of B10 it was 128%; in that of B11, 129%; in that of B12, 119%.
With B13, the “He/Con 2aR” value stood at 107%.
With B14, the “He/Con 2aR” value worked out at 98.6%.
Same read-out and setting: in the case of B15 it was 108%; in that of B16, 125%; in that of B17, 142%.
The same measure, in the same setting: under B18 stands 131%; under B19, 91%.
On to B20, for which the “He/Con 2aR” value worked out at 132%.
Same read-out and setting: in the case of B21 it was 131%; in that of B22, 124%; in that of B23, 115%.
Still for that read-out and setting: in the case of B24 it was 110%; in that of B25, 148%.
Still for that read-out and setting: under B26 stands 177%; under B27, 150%.
On to B28, for which the “He/Con 2aR” value came out at 135%.
Same read-out and setting: in the case of B29 it was 142%.

Source of the values: patent US20260167699A1 (Chugai, published 2026).
